Data taken from patent US9951373B2, “Oplophorus-derived luciferases, novel coelenterazine substrates, and methods of use” (Promega Corporation, priority 2010, dated 2018).

How the values were obtained:
[1] = Enzyme kinetics of OgLuc variants in E. coli lysates; type: biochemical; conditions: PBI-3939, E. coli lysates
Procedure: Using methods known in the art, enzyme kinetic assays measuring luminescence were performed with the lysates of E. coli containing IV and the IV variants 15C1, 9B8, 9F6, and 9A3. […] Two fold serial dilutions of PBI-3939 in the assay buffer described previously in Example 26 were assayed with the diluted lysates. […] Variants 9B8 and 9F6 had higher Km values compared to IV while Km values for the other variants were unchanged.
Luminescence was measured on a TECAN® INFINITE® F500 luminometer.
The enzyme kinetics values were determined for the OgLuc variants as described previously, except luminescence was measured using a GLOMAX® luminometer. Three replicates were used for each variant.

[2] = Exposure of OgLuc variant to urea; type: physicochemical; conditions: 3 M urea, 30 min at 25° C.
Procedure: Since Firefly luciferase is known to be relatively unstable, it is much more sensitive to urea exposure. To determine whether this was also the case with the OgLuc variants, the sensitivity of the OgLuc to urea was determined 5 μl of 45.3 μM L27V enzyme was mixed with 100 μL of a urea solution (100 mM MOPS, pH 7.2, 100 mM NaCl, 1 mM CDTA, 5% glycerol and various concentrations of urea) and incubated for 30 min at room temperature. 5 μL of the urea+L27V enzyme solution was diluted 10,000-fold into DMEM without phenol red+0.1% PRIONEX®, 50 μL was mixed with 50 μL of assay reagent containing 100 μM PBI-3939 (previously described) and the luminescence was read at 10 min. (FIG. 88).
A 0.31 mg/mL stock of purified L27V variant was diluted 100,000-fold into buffer (PBS+1 mM DTT+0.005% IGEPAL) and incubated with 3 M urea for 30 min at 25° C. and then mixed 1:1 (50 μL+50 μL) with an assay reagent containing 100 μM PBI-3939 (previously described). The reactions were read on a TECAN® INFINITE® F500 luminometer as described previously (for 100 min; 1 min read intervals) (FIG. 89).

[3] = Stability of secreted OgLuc variants in saved media; type: physicochemical; conditions: secreted variant in saved media
Procedure: To determine if the secretion signal sequence of OgLuc facilitates its secretion, the OgLuc variants 9B8, V2 and L27V were cloned into pF4Ag containing an N-terminal OgLuc secretion signal sequence. The variants were also cloned into vectors without the secretion signal sequence. CHO or HeLa cells were then plates at 100,000 cells/well in 1 mL F12 media with 10% FBS and 1× sodium pyruvate (CHO cells) or DMEM with 10% FBS and 1× sodium pyruvate (HeLa cells) into 12-well plates and incubated overnight at 37° C., 5% CO2.
After the overnight incubation, the cells were transfected with 1 μg plasmid DNA containing 9B8, V2, or L27V with or without the secretion signal sequence using the TRANSIT®-LT1 transfection reagent (Mirus Bio) and OPTI-MEMO media (Invitrogen). The cells were again incubated overnight at 37° C., 5% CO2.
After the second overnight incubation, the media was removed and saved for analysis. […] To 10 μL of cell lysate or saved media from each sample, 50 μL assay buffer with 40 μM PBI-3939 was added, and luminescence measured as described above.
To determine the stability of the secreted variants, 150 μL aliquots of the saved media from each sample was placed at 37° C. or 50° C. The aliquots were then removed at different time points (0, 1, 2, 3, 5, 6, and 7 […]), frozen on dry ice, and kept at −20° C. until assayed. To assay for stability, the media aliquots were thawed to room temperature, and 10 μL of each aliquot was mixed with assay buffer with PBI-3939 (pH 6.0) as described above. Luminescence was measured as above, and the half-life (t50) determined (Table 34).

HEK293 cells = assay: Luminescence in sandwich background, HEK293 cells; type: cell-based, human; conditions: non-sandwich versus sandwich
Procedure: The PCR library in the Id-OgLuc-HT7 sandwich background was screened for additional variants with increased luminescence compared to 9B8 opt+K33N in sandwich background. Selected variants were then assayed in HEK293 and NIH3T3 cells. […] 1F7 (F) (SEQ ID NOs: 84 and 85) and 15H1 (F) (SEQ ID NOs: 86 and 87) had at least 1.3 fold-increase in luminescence in E. coli. 1F7 (F) was brighter than 9B8 opt+K33N in the sandwich background in HEK293 and NIH3T3 cells.
The variants 9B8 opt+K33N+T39T+K43R+Y68D (“V2”; SEQ ID NOs: 92 and 93), 9B8 opt+K33N+L27V+K43R+Y68D (SEQ ID NOs: 339 and 340), 9B8 opt+K33N+L27V+T39T+K43R+S66N (SEQ ID NOs: 341 and 342), and 9B8 opt+K33N+L27V+T39T+K43R+Y68D (“L27V”; SEQ ID NOs: 88 and 89) were subcloned into the Id-OgLuc-HT7 sandwich background as described above and assayed in HEK293 and NIH3T3 cells as described above. The luminescence generated by the sandwiched variants were compared to the luminescence generated by the […] sandwich (SEQ ID NOs: 59 and 60) (Table 38). The L27V sandwich (SEQ ID NOs: 90 and 91) and V2 sandwich (SEQ ID NOs: 94 and 95) had at least 1.3× fold-increase in luminescence in HEK293 and NIH3T3 cells.
The sandwich and non-sandwich versions of the variants V2, 9B8 opt+K33N+L27V+K43R+Y68D, 9B8 opt+K33N+L27V+T39T+K43R+S66N, and L27V were assayed in HEK293 and NIH3T3 cells as described in Example 37. The luminescence generated by the non-sandwiched variants was compared to the luminescence generated by the sandwiched variants (Table 39).

[4] = Km of L27V reversion variants, native coelenterazine; type: biochemical
Procedure: Relative activities <1 indicate the reversion is detrimental compared to the residue at that site in the L27V variant. Relative activities >1 indicate the reversion is favorable for activity compared to the residue at that site in the L27V variant. Some additional data on these mutants indicated the following: 166K, 54F, 54A and L27V were tested for thermal stability. The T1/2 60° C. for 166K, 54F, and 54A were 87, 74, and 33%, respectively, indicating these substitutions cause a reduction in thermal stability. […] This indicates higher substrate affinity for L27V, particularly for the position 54 substitutions.

[5] = Thermal stability of OgLuc variants at 60° C.; type: physicochemical; conditions: 60° C., assay buffer MES pH 6.0
Procedure: Aliquots were removed at different time-points and placed on dry ice to freeze the samples. […] Luminescence was measured on a GLOMAX® luminometer (Promega Corp.).
The thermal stability of the variants at 60° C. was examined as described above, except the assay buffer contained 100 mM MES pH 6.0 instead of HEPES.

B1: L27V: 9B8 opt+K33N variant with L27V, T39T, K43R, Y68D (SEQ ID NO: 89) (protein)
chain: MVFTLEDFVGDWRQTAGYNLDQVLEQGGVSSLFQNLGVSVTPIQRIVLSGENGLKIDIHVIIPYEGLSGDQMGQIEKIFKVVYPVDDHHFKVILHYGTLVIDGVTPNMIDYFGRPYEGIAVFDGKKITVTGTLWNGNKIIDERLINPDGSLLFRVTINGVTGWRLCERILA
With B1 the Km [1] was 13.9 µM, the Vmax [1] was 190,000,000 RLU/0.5 sec and the reduction of activity [2] was “approximately 50%”. For the same molecule, the “½ life 37 C.” value [3] was 17 days, the “½ life 50 C.” value [3] was 11 h and the “Fold-decrease in luminescence in the presence of sandwich background, HEK 293” value (HEK293 cells) was 6. It also gave a Km [4] of 16 µM and a 1/2 life hours [5] of 21.7 h.
